The values below are quoted from earlier work in paper PMC5428663, “Identification of small molecule inhibitors of Interleukin-18” (Scientific Reports, 2017).

The series addresses IL-18 (Homo sapiens) (UniProt Q14116).

pKd: −log10 of the molar value.

IL-18BP, sequence (O95998 31-194): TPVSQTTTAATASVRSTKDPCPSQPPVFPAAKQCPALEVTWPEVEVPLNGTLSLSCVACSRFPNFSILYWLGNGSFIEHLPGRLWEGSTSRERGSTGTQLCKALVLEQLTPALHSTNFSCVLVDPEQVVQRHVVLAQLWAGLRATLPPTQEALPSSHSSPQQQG
IL-18 (Homo sapiens), sequence (Q14116 37-193): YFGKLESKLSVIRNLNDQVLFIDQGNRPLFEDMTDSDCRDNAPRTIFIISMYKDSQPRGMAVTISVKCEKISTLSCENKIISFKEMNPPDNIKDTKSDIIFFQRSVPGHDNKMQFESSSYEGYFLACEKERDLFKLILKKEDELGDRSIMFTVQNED

Usually pKd stands for the Kd on a negative log10 scale, so that one unit is a factor of ten. On to IL-18BP (from UniProt O95998), for which the negative-log Kd (pKd) was 9.40.
